The target of assay [1] is T1, GST-VPAC1 fusion protein (human VPAC1, full length) (human, UniProt P08515 1-218 = GST).
T1 construct: also called recombinant VPAC1
Put plainly: SPR (BIAcore 1000), GST-VPAC1 immobilized; KA = 1/KD; first batch.

The target of assay [2] is T2, GST fusion protein of VPAC1 extracellular loop 2 (human).
T2 construct: also called isolated extracellular loop 2 of the VPAC1 receptor; not shown: GST (glutathione-S-transferase) fusion partner
T2 chain: IHFEDYGCWDTINSSLWW
The experiment in a line: western blotting of GST-loop fusion proteins.

Assay [3] has as its target T1, GST-VPAC1 fusion protein (human VPAC1, …). Put plainly: SPR (BIAcore 1000), GST-VPAC1 immobilized on CM5 chip, antibody injected, 1:1 Langmuir fit; second batch. (In general: Surface plasmon resonance follows binding to a sensor surface in real time, without labels.)
The target is the same in assay [4]. Put plainly: SPR (BIAcore 1000), GST-VPAC1 immobilized on CM5 chip, antibody injected, 1:1 Langmuir fit; first batch.
In assay [5] the target is T3, GST-fused VPAC1 variant 3-2 (amino acids 123-457 of SEQ ID NO:15) (human, UniProt P32241 123-457).
T3 construct: not shown: By analogy w [CUT]
T3 sequence: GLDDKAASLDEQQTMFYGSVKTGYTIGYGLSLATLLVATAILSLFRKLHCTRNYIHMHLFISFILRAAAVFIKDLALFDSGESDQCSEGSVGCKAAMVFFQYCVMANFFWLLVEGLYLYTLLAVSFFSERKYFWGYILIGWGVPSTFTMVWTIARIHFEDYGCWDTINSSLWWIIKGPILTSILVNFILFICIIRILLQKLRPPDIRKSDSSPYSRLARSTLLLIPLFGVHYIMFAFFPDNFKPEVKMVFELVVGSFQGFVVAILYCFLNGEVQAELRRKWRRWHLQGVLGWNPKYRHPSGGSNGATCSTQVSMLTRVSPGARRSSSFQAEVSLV
The experiment in a line: western blotting of GST-fused VPAC1 deletion variants. (In general: In western blotting, separated proteins are transferred to a membrane and probed.)

Assay [6] addresses T4, GST-fused VPAC1 variant 4-2 (amino acids 231-457 of SEQ ID NO:15) (human, UniProt P32241 231-457).
T4 construct: not shown: By analogy w [CUT]
T4 sequence: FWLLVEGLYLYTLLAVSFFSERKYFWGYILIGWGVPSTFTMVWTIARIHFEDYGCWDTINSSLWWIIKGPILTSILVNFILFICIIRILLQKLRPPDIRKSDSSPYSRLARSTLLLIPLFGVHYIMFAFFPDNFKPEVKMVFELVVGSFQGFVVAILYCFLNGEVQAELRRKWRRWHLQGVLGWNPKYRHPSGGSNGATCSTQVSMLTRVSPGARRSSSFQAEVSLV
Described as above.

The target of assay [7] is T5, murine VPAC1 receptor on mouse bone marrow-derived CD41/61+ megakaryocytes (mouse, UniProt P97751 31-459).
T5 construct: whole, on cells; Endogenous receptor; It was detected by immunoblot of megakaryocytes and targeted on living megakaryocytes in the cAMP assay; also called VPAC1 receptor on the murine megakaryocytes
T5 sequence (looked up): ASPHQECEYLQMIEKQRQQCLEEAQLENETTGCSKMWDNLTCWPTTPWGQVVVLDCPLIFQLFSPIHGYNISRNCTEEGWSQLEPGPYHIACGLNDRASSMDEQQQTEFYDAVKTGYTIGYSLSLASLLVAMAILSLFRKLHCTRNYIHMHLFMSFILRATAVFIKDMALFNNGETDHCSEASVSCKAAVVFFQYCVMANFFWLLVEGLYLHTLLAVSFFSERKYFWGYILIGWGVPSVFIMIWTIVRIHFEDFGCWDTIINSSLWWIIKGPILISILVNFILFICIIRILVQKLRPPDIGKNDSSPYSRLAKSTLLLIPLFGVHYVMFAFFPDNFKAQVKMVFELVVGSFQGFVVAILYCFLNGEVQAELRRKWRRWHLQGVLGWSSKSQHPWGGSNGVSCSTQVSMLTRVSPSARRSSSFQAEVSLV
Put plainly: immunoblot of mouse bone marrow-derived megakaryocytes.

Assay [8] deals with T1, GST-VPAC1 fusion protein (human VPAC1, …). The experiment in a line: SPR (BIAcore 1000), GST-VPAC1 immobilized; KA = 1/KD; second batch.
The target is the same in assay [9]. Put plainly: SPR (BIAcore 1000), GST-VPAC1 immobilized; KA = 1/KD.
For assay [10] the target is unchanged. Put plainly: SPR (BIAcore 1000), GST-VPAC1 immobilized on CM5 chip, antibody injected, 1:1 Langmuir fit.

B1: murine monoclonal anti-VPAC1 antibody 23A11 (antibody, V domains shown)
VH: EVQLQESGPSLVKPSQTLSLTCSVTGDSITSGYWNWIRKFPGNKLEYMGYIRYSGSTYYSPALKSRFSITRDTSKNQYYLQLNSVTTEDTATYYCSNWAYWGQGTLVTVSA
VL: DIVITQDELSNPVTSGESVSISCRSSKSLLYKDGKTYLNWFLQRPGQSPQLLIYLMSTRASGVSDRFSGSGSGTDFTLEISRVKAEDVGVYYCQQLVEYPLTFGAGTKLELK
notes: Murine hybridoma antibody (BALB/c mice); also called murine 23A11; anti-VPAC1 receptor antibody 23A11
By Kd is commonly meant a measure of binding affinity in units of concentration. Higher therefore signals a looser complex. For B1, the results for the Ka in assay [1] and in [8] were 3.54e+07 M⁻¹ and 5.04e+07 M⁻¹, respectively. Also, the binding result in assay [2], in assay [5], in [6] and in assay [7] was “binds” in each case. For the same molecule, the Kd in assay [3] was 19.9 nM; in assay [4], 28.3 nM.

B2: humanized 23A11 antibody (isotype not stated in Example 8) (antibody, V domains shown)
VH: EVQLQESGPGLVKPSQTLSLTCTVSGDSITSGYWNWIRKHPGKGLEYMGYIRYSGSTYYSPSLKSRFTISRDTSKNQYSLKLSSVTAADTATYYCSNWAYWGQGTLVTVSA
VL: DIVITQSPLSLPVTPGEPVSISCRSSKSLLYKDGKTYLNWFLQRPGQSPQLLIYLMSTRASGVSDRFSGSGSGTDFTLKISRVEAEDVGVYYCQQLVEYPLTFGQGTKLEIK
notes: The constant regions are human IgG1 or IgG4; also called humanize 23A11 antibody; rhu23A11
As for B2, the Ka in assay [9] was determined as 1.02e+08 M⁻¹. Moreover, the Kd in assay [10] was 9.82 nM.

For the origin of these results see patent publication EP2009026A1 (ThromboGenics N.V., dated 2008).
